Usually stoichiometry N stands for a count of units in the complex or per binding partner.

This note sets out measurements from PMC3287209 (Nucleic Acids Research, 2012).

One data set has as its target XLF wild-type (human, UniProt Q9H9Q4 1-299). Description: native gel or EMSA. (A gel shift assay detects complexes by their altered migration in electrophoresis.)
The data set “crystal structure” deals with the molecule itself. Kind of data set: crystal structure.

B1: XRCC4^1–157 (domain or fragment)
chain: MERKISRIHLVSEPSITHFLQVSWEKTLESGFVITLTDGHSAWTGTVSESEISQEADDMAMEKGKYVGELRKALLSGAGPADVYTFNFSKESCYFFFEKNLKDVSFRLGSFNLEKVENPAEVIRELICYCLDTIAENQAKNEHLQKENERLLRDWND
B1: the binding result in the data set with XLF wild-type is listed as “binds”.

B2: XLF^1–224 (domain or fragment)
chain: MEELEQGLLMQPWAWLQLAENSLLAKVFITKQGYALLVSDLQQVWHEQVDTSVVSQRAKELNKRLTAPPAAFLCHLDNLLRPLLKDAAHPSEATFSCDCVADALILRVRSELSGLPFYWNFHCMLASPSLVSQHLIRPLMGMSLALQCQVRELATLLHMKDLEIQDYQESGATLIRDRLKTEPFEENSFLEQFMIEKLPEACSIGDGKPFVMNLQDLYMAVTTQ
With B2, the “stoichiometry N” value in the data set “crystal structure” was found to be 2.
